Measurements: the supplement of paper PMC9732359
± gives the uncertainty stated by the source.

Experiment: protein stability index of a GFP-peptide fusion (yeast GPS) (PSI 1-4); higher = more stable; sorted into four equal gates, so the index is relative within each strain
Summary of the method: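 Tiled 17-residue yeast protein peptides were fused downstream of GFP in a plasmid that also expresses Cherry, and the pooled library was carried in yeast. Mid-log cultures in leucine-free medium were sorted into four equal gates by GFP/Cherry fluorescence ratio, and plasmids from each gate were PCR-amplified and Illumina-sequenced, with reads assigned to strains by barcodes. The protein stability index for each peptide was each gate's read frequency times its gate number, summed.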

Sequence | protein stability index (doa10∆) | protein stability index (pdr5∆) | protein stability index (san1∆) | protein stability index (ubr1∆)
ILTREVQNSTLAQLTSK [RPS1B] | 2.14 ± 0.069 | 2.71 ± 0.055 | 2.48 ± 0.075 | 2.45 ± 0.04
FLKKLRNEQVTIELKNG [SMD1] | 2.49 ± 0.051 | 2.24 ± 0.044 | 2.42 ± 0.056 | 2.67 ± 0.039
TEELSITGEKLDTQLND [SMC1] | 1.86 ± 0.068 | 2.41 ± 0.083 | 2.29 ± 0.12 | 1.36 ± 0.034
SLEDKILRMGAFRTIES [RRI1] | 2.24 ± 0.17 | 2.04 ± 0.2 | 1.83 ± 0.18 | 2.28 ± 0.073
QRVFKPVDITMMENYQN [PRP8] | 2.43 ± 0.063 | 2.27 ± 0.074 | 2.71 ± 0.073 | 2.41 ± 0.048
FPEENIIDAKTRNEQTT [MCD1] | 3.29 ± 0.09 | 3.16 ± 0.057 | 3.19 ± 0.052 | 3.08 ± 0.054
HVVGRIAEVGNKRWKVD [RRP4] |  | 3 ± 0.17 | 2.89 ± 0.16 | 2.67 ± 0.082
DDFTDAIQFVKENELLF [YCS4] | 2.1 ± 0.082 | 2.04 ± 0.061 | 2.58 ± 0.16 | 1.92 ± 0.07
RLYVKGKHLSYQRSKRV [RPL33A] | 2.1 ± 0.063 | 1.75 ± 0.046 | 1.67 ± 0.094 | 2.46 ± 0.065
IILSIDEHHESFELKEE [RRP6] | 3.19 ± 0.1 | 2.99 ± 0.15 | 3.08 ± 0.08 | 2.98 ± 0.088
TIVTGGGSGNGDDVVND [RPP1] | 3.14 ± 0.26 | 3.6 ± 0.17 | 3.22 ± 0.12 | 3.54 ± 0.21
SFSDENSDDFFMDNSYD [ESC2] | 1.97 ± 0.068 | 1.8 ± 0.11 | 2.63 ± 0.1 | 1.81 ± 0.062
AQEDVPYLLPYILEAEA [QCR7] | 2.02 ± 0.048 | 1.79 ± 0.046 | 2.03 ± 0.067 | 1.86 ± 0.038
FDIYNRDRKLITDKGTV [YJL039C/NUP192] | 3.18 ± 0.13 | 2.53 ± 0.093 | 2.86 ± 0.11 | 2.96 ± 0.083
YQGVYSMGSILLSFVLG [YML031W/NDC1] | 2.29 ± 0.074 | 2.14 ± 0.11 | 2.58 ± 0.11 | 2.44 ± 0.12
TKIIMATNRPDTLDPAL [RPT4] | 2.98 ± 0.065 | 3 ± 0.063 | 2.9 ± 0.054 | 3.12 ± 0.1
NKIKLNILKILSSLILK [SRB8] | 1.79 ± 0.072 | 1.73 ± 0.074 |  | 1.87 ± 0.053
DDYSNLKREERQGLIHQ [SMC3] | 2.21 ± 0.2 | 2.6 ± 0.1 | 1.96 ± 0.21 | 2.7 ± 0.11
VKIIRKSETSGRYASYR [RPB5] | 3.09 ± 0.076 | 3.04 ± 0.05 | 3.01 ± 0.053 | 3.09 ± 0.045
TFSYVDSSLQPEYFESP [YMR129W/POM152] | 3.22 ± 0.2 | 3.07 ± 0.13 |  | 3.08 ± 0.22
EGIIKPISKHSKQAIYT [RPS25A] | 1.65 ± 0.065 | 2.03 ± 0.057 | 1.47 ± 0.095 | 1.72 ± 0.056
VPLTKRYQHLEKITQIS [PCI8] | 2.39 ± 0.28 | 2.22 ± 0.11 |  | 1.71 ± 0.096
AVHNGGRKHVAALRTVK [RPL9A] |  |  |  | 2.88 ± 0.19
PRSPGRSPTRRLELLQL [SMC4] | 1.41 ± 0.27 | 2.12 ± 0.15 | 1.99 ± 0.25 | 1.7 ± 0.13
GVAHLLNRFNFQNTNTR [QCR2] | 2.69 ± 0.084 | 2.58 ± 0.086 | 2.43 ± 0.15 | 2.5 ± 0.062
ALSGNEGDASPFTDITV [RPB2] | 2.99 ± 0.14 | 3.12 ± 0.075 | 3.12 ± 0.099 | 3.1 ± 0.15

Sequence | protein stability index (doa10∆) | protein stability index (pdr5∆) | protein stability index (san1∆) | protein stability index (ubr1∆)
EQTCVKLLDSGCENPAD [SRP72] | 3.26 ± 0.066 | 3.4 ± 0.085 | 2.91 ± 0.092 | 3.46 ± 0.073
AIIYQRGKDGKLHVAAK [YGL100W/SEH1] | 3.25 ± 0.12 | 3.31 ± 0.1 | 2.9 ± 0.13 | 3.02 ± 0.18
FLPFNNSASNNGNLTSN [SWI1] | 2.94 ± 0.093 | 3.02 ± 0.094 | 3.07 ± 0.058 | 2.9 ± 0.099
AFLSFLAYRNYWTQYLG [YJL039C/NUP192] | 1.33 ± 0.057 | 1.26 ± 0.04 | 1.26 ± 0.11 | 1.26 ± 0.068
MEIVANAKESNYTDLIW [MED1] | 3.27 ± 0.094 | 3.41 ± 0.16 | 3.44 ± 0.078 | 2.83 ± 0.081
KKMTKKAKRSNLYTPKA [PRP8] | 2.9 ± 0.059 | 2.19 ± 0.038 | 2.39 ± 0.059 | 2.3 ± 0.031
VEQDEGQCRTELEGSFN [YCS4] | 3.38 ± 0.081 | 3.48 ± 0.098 | 3.12 ± 0.14 | 3.49 ± 0.067
AAVVKTSSRQTVFLPMV [RPT5] | 3.02 ± 0.051 | 3.15 ± 0.056 | 2.97 ± 0.051 | 2.87 ± 0.061
LFGNNNTNNINNSSSGM [YGL172W/NUP49] | 3.38 ± 0.16 | 3.42 ± 0.14 | 3 ± 0.12 | 3.13 ± 0.13
PIFSFGKQEENGDEGDD [YOR098C/NUP1] | 3.63 ± 0.14 | 3.65 ± 0.17 | 3.55 ± 0.096 | 3.32 ± 0.14
RLAEVNLKDLNNVKQMV [RPO21] | 2.77 ± 0.26 |  | 2.9 ± 0.25 | 3.08 ± 0.18
NAISNTQDDFTTSVDVM [SRP54] | 2.79 ± 0.076 | 2.76 ± 0.061 | 3.1 ± 0.064 | 3.2 ± 0.045
NYPQLTEDILKEISTRV [YCS4] |  | 3.11 ± 0.17 |  | 3.41 ± 0.13
KTLTEEVTKSSHVENLE [YIL149C/MLP2] | 2.81 ± 0.053 | 2.94 ± 0.053 | 2.86 ± 0.051 | 3.13 ± 0.035
CANKYMTTVSGRDAFHL [RPL10] | 2.24 ± 0.24 | 2.64 ± 0.15 | 1.74 ± 0.2 | 1.92 ± 0.1
LLQGGAKVVVTTSRFSK [FAS2] | 2.72 ± 0.077 | 2.43 ± 0.068 | 2.72 ± 0.056 | 2.78 ± 0.047
SNNTAATADTTHLHEAL [NUT1] | 2.37 ± 0.076 | 3.07 ± 0.084 | 3.15 ± 0.11 | 3.02 ± 0.042
IEKGSTFGINLIYVNPF [FAS1] | 2.58 ± 0.06 | 2.61 ± 0.068 | 2.71 ± 0.052 | 2.78 ± 0.04
LDKDSSQSSAAAGASVD [RPN6] | 3.47 ± 0.11 | 3.42 ± 0.078 | 3.02 ± 0.075 | 3.2 ± 0.086
VSKVQKRKVLELKKKRK [SRP72] | 2.78 ± 0.1 | 2.57 ± 0.13 | 2.24 ± 0.1 | 2.48 ± 0.054
SDKPSLPSAVDGENDKK [YLR335W/NUP2] | 3.4 ± 0.08 | 3.42 ± 0.086 | 3.37 ± 0.071 | 3.35 ± 0.11
NHMLIDSLNQLEIRNKI [RGR1] | 2.97 ± 0.097 | 3.04 ± 0.069 | 2.92 ± 0.079 | 3.08 ± 0.076
WCTTCKSAENIIKMTIP [RET1] | 3.08 ± 0.077 | 3.1 ± 0.095 | 3.11 ± 0.067 | 3.03 ± 0.071
SSFRPCPLSQQFCGIKE [BRR2] | 2.45 ± 0.073 | 1.9 ± 0.054 | 2.38 ± 0.068 | 2.31 ± 0.037
VFKLSTNLISKISLLRP [SWP82] | 2.11 ± 0.099 | 2.43 ± 0.1 | 2.13 ± 0.18 | 2.87 ± 0.088
MDFGVDPSMDPELAMAL [RPN10] | 2.88 ± 0.077 | 3.15 ± 0.079 | 2.99 ± 0.074 | 2.84 ± 0.069
